Molecular target: T1, IL-17 (IL-17A) (Homo sapiens, UniProt Q16552 Q16552:24-155)
T1 sequence: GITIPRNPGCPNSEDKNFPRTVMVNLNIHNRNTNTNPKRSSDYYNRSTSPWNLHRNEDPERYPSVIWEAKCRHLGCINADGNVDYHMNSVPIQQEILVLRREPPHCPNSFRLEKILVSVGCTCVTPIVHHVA
Test: cell_activity; IL-6 release (ELISA), NIH3T3
Details: chain copies: 2
Description: First, human IL-17 and the aptamer produced in Example 1-2 were pre-incubated at 37° C. for 30 min, and added to NIH3T3 cell (ATCC, CRL1658) together with mouse TNFα (2 ng/mL). Then, after incubation for 24 hr, the culture supernatant was collected, and the production amount of IL-6 was measured by ELISA method described below. The IL-17 inhibitory action of each aptamer was determined from the production amount of IL-6. For comparison with the aptamer of the present invention, a conventionally-known aptamer (aptamer No. 50) against IL-17 was used.
ELISA method for verifying IL-17 inhibitory action of aptamer: A microtiter plate for ELISA was coated with rat anti-mouse IL-6 antibody (BD Biosciences, 2 μg/mL; 100 μL/well) diluted with PBS, and incubated at 4° C. overnight. The next day, the microtiter plate was washed 3 times with PBS/0.05% Tween 20, and applied blocking with PBS/1% BSA (200 μL/well) at room temperature for 2 hr. Then, the plate was washed 3 times with PBS/0.05% Tween 20. Recombinant mouse IL-6 (BD Biosciences; 100 μL/well) serially diluted with PBS/1% BSA/0.05% Tween 20 or culture supernatants (100 μL/well) were added to the plate. […] After 15 min, aqueous sodium hydroxide solution (2N: 50 μL/well) was added to stop the reaction, and the plate was read on a microtiter reader (Bio-Rad) by using a 405 nm filter.

B1: aptamer No. 52 (mixed)
mixed: GGGUAGCCGGAGGAGTCAGTAAUCGGUACCC
modifications: g(M)g(M)g(M)u(M)Ag(S)c(M)c(M)Gg(M)a(F)gg(M)a(M)g(S)Tc(F)a(F)gTa(M)a(M)u(M)c(M)g(M)g(M)u(F)a(M)CCC
  IC50: 1.11 nM
